Changes are numbered by the printed parent chain. Numbers in names are those of the source. Where “and” joins values, the source holds several entries; their conditions need not be identical. Identical values can stand only once.
B1: H4S conjugate, IANBD fluorophore coupled at position Asn9 (designed binder)
chain: MRGSHHHHHHGSVKVKFFWCGEEKEVDTSKIVWVKRAGKSVLFIYDDNGKNGYGDVTEKDAPKELLDMLARAEREKKLN
modifications: Cys at position 9 (H4S numbering) coupled to IANBD ester (ANBD)
B2: H4S conjugate, IANBD fluorophore coupled at position Trp8 (designed binder)
chain: B1 chain with W19C, C20N
modifications: Cys at position 8 (H4S numbering) coupled to IANBD ester (ANBD)
B3: H4S conjugate, IANBD fluorophore coupled at position Asp44 (designed binder)
chain: B1 chain with C20N, D55C
modifications: Cys at position 44 (H4S numbering) coupled to IANBD ester (ANBD)
B4: H4S conjugate, IANBD fluorophore coupled at position Asn40 (designed binder)
chain: B1 chain with C20N, N51C
modifications: Cys at position 40 (H4S numbering) coupled to IANBD ester (ANBD)
B5: H4S conjugate, IANBD fluorophore coupled at position Phe7 (designed binder)
chain: B1 chain with F18C, C20N
modifications: Cys at position 7 (H4S numbering) coupled to IANBD ester (ANBD)
B6: H4S conjugate, IANBD fluorophore coupled at position Thr46 (designed binder)
chain: B1 chain with C20N, T57C
modifications: Cys at position 46 (H4S numbering) coupled to IANBD ester (ANBD)
B7: H4S conjugate, IANBD fluorophore coupled at position Leu31 (designed binder)
chain: B1 chain with C20N, L42C
modifications: Cys at position 31 (H4S numbering) coupled to IANBD ester (ANBD)
B8: H4S conjugate, IANBD fluorophore coupled at position Lys39 (designed binder)
chain: B1 chain with C20N, K50C
modifications: Cys at position 39 (H4S numbering) coupled to IANBD ester (ANBD)
B9: H4S conjugate, IANBD fluorophore coupled at position Lys28 (designed binder)
chain: B1 chain with C20N, K39C
modifications: Cys at position 28 (H4S numbering) coupled to IANBD ester (ANBD)
B10: H4S conjugate, IANBD fluorophore coupled at position Tyr42 (designed binder)
chain: B1 chain with C20N, Y53C
modifications: Cys at position 42 (H4S numbering) coupled to IANBD ester (ANBD)
B11: H4S conjugate, IANBD fluorophore coupled at position Ser29 (designed binder)
chain: B1 chain with C20N, S40C
modifications: Cys at position 29 (H4S numbering) coupled to IANBD ester (ANBD)
B12: Trp22: H4S conjugate: residue Trp22 changed into cysteine and coupled with the IANBD fluorophore (conjugate)
chain: B1 chain with C20N, W33C
B13: Tyr42: H4S conjugate: residue Tyr42 changed into cysteine and coupled with the IANBD fluorophore (conjugate)
chain: B1 chain with C20N, Y53C
B14: Lys28: H4S conjugate: residue Lys28 changed into cysteine and coupled with the IANBD fluorophore (conjugate)
chain: B1 chain with C20N, K39C
B15: Asp44: H4S conjugate: residue Asp44 changed into cysteine and coupled with the IANBD fluorophore (conjugate)
chain: B1 chain with C20N, D55C
B16: Phe7: H4S conjugate: residue Phe7 changed into cysteine and coupled with the IANBD fluorophore (conjugate)
chain: B1 chain with F18C, C20N
B17: Asn40: H4S conjugate: residue Asn40 changed into cysteine and coupled with the IANBD fluorophore (conjugate)
chain: B1 chain with C20N, N51C
B18: Asn9: H4S conjugate: residue Asn9 changed into cysteine and coupled with the IANBD fluorophore (conjugate)
chain: B1 chain
B19: Thr46: H4S conjugate: residue Thr46 changed into cysteine and coupled with the IANBD fluorophore (conjugate)
chain: B1 chain with C20N, T57C
B20: Leu31: H4S conjugate: residue Leu31 changed into cysteine and coupled with the IANBD fluorophore (conjugate)
chain: B1 chain with C20N, L42C
B21: Ile33: H4S conjugate: residue Ile33 changed into cysteine and coupled with the IANBD fluorophore (conjugate)
chain: B1 chain with C20N, I44C
B22: Ser29: H4S conjugate: residue Ser29 changed into cysteine and coupled with the IANBD fluorophore (conjugate)
chain: B1 chain with C20N, S40C
B23: Trp8: H4S conjugate: residue Trp8 changed into cysteine and coupled with IANBD (SEQ ID NO: 59) (conjugate)
chain: B1 chain with W19C, C20N
modifications: IANBD fluorophore on Cys8
B24: Lys39: H4S conjugate: residue Lys39 changed into cysteine and coupled with IANBD (SEQ ID NO: 63) (conjugate)
chain: B1 chain with C20N, K50C
modifications: IANBD fluorophore on Cys39
B25: Val21: H4S conjugate: residue Val21 changed into cysteine and coupled with IANBD (SEQ ID NO: 60) (conjugate)
chain: B1 chain with C20N, V32C
modifications: IANBD fluorophore on Cys21

Target: T1, hen egg-white lysozyme (hen, UniProt P00698 19-147)
T1 construct: also called HEL
Assay: from Kd in solution: fluorescence titration of conjugate against competition Biacore of H4S(wt)
Settings: not given

ΔΔG (conjugate against H4S(wt)) | Molecule
≤ 0.5 kcal/mol | B1
≥ 0.5 kcal/mol and ≤ 1.2 kcal/mol | B2
≥ 1.5 kcal/mol | B3
≥ 1.5 kcal/mol | B4
≤ 0.5 kcal/mol | B5
≤ 0.5 kcal/mol | B6
≥ 1.5 kcal/mol | B7
≥ 0.5 kcal/mol and ≤ 1.2 kcal/mol | B8
≤ 0.5 kcal/mol | B9
≥ 1.5 kcal/mol | B10
≤ 0.5 kcal/mol | B11

Target: T1, hen egg-white lysozyme
Assay: fluorescence titration in solution, 0.3 µM conjugate, buffer C, 25 °C
Settings: not given

Kd [nM] | ΔF∞/F0 (maximal relative variation of fluorescence on HEL binding) | Molecule
7 | 0.52 | B1
189 | 1.47 | B2
623 | 1.5 | B3
2000 | 0.57 | B4
42 | 0.26 | B5
100 | 0.36 | B6
8360 | 4.9 | B7
126 | 1.65 | B8
28 | 0.26 | B9
2480 | 6.6 | B10
33 | 0.55 | B11

Target: T2, hen egg-white lysozyme (HEL) (Gallus gallus, UniProt P00698)
T2 construct: hen egg-white lysozyme (HEL); purchased Sigma
Assay: Titration of H4S conjugates with HEL, monitored by fluorescence
Assay type: binding
Settings: decrease of free energy of interaction with HEL on fluorophore conjugation, from Kd of conjugate versus H4S(wt)
Experimental: The binding and fluorescence experiments were performed at equilibrium as if the preparations of conjugates were homogeneous, i. e. as if yc = 1. The binding reactions were conducted by incubating 0.3 µM of conjugate with variable concentrations of the HEL or BSA antigens in a volume of 1 mL, for 30 min in the dark with gentle shaking. The reactions were carried out in Buffer C or in a mixture v:(1-v) of calf serum and Buffer C as indicated in example 2.
The conjugate (or biosensor) B and antigen A form a 1:1 complex B:A according to the reaction: B + A↔B:A [formula] At equilibrium, the concentration [B:A] of the complex is given by the equation: [B:A] = 0.5{[B]0+[A]0+Kd-(((([B]0+[A]0+Kd))^2-4[B]0[A]0))^(1/2)} [formula] where Kd is the dissociation constant, and [A]0 and [B]0 are the total concentrations of A and B, respectively (Renard et al., 2003).
The fluorescence of the IANBD conjugates was excited at 485 nm (5 nm slit width) and its intensity measured between 520 and 550 nm (20 nm slit width) with a FP-6300 spectrofluorometer (Jasco). The signal of HEL alone or BSA alone was measured in an independent experiment and subtracted from the global signal of the binding mixture to give the specific fluorescence intensity F of each conjugate. The intensity F at a given value of [A]0 satisfies the following equation: (F-F0)/F0 = ΔF/F0 = (ΔF∞/F0)([B:A]/[B]0) [formula] where F0 and F∞ are the values of F at zero and saturating concentrations of A (Renard et al., 2003). The values of ΔF∞/F0, Kd, and [B]0 could be determined by fitting Equation 5, in which [B:A] is given by Equation 4, to the experimental values of ΔF/F0, measured in a titration experiment. The fittings were performed with the Kaleidagraph software (Synergy Software).
The sensitivity s and relative sensitivity sr of a conjugate can be defined by the following equations for the low values of [A]0, i. e. in the initial part of the titration curve: ΔF = s[A]0 [formula] ΔF/F0 = sr [A]0 /[B]0 [formula] s and sr can be expressed as functions of characteristic parameters of the conjugate: sr = (ΔF∞/F0)([B]0/(Kd+[B]0)) [formula] s = fb sr [formula] where fb = F0/[B]0 is the molar fluorescence of the free conjugate (Renard and Bedouelle, 2004). Equation 8 implies that sr is maximal when the biosensor B is present at a concentration [B]0 >> Kd, as every newly titrated molecule A then forms a complex. Equation 6 implies that the lower limit of detection δ[A]0 of the conjugate is linked to the lower limit of measurement of the spectrofluorometer δF by the following equations: δ[A]0 = s^-1 δF = sr^-1 [B]0 (δF/F0) [formula]

ΔΔG [kcal/mol] | Molecule
≥ 1.5 | B12
≥ 1.5 | B13
≤ 0.5 | B14
≥ 1.5 | B15
≤ 0.5 | B16
≥ 1.5 | B17
≤ 0.5 | B18
≤ 0.5 | B19
≥ 1.5 | B20
≥ 1.5 | B21
≤ 0.5 | B22

Same assay, conditions: fluorescence titration with HEL; 0.3 µM conjugate, buffer C, 25 °C; value ± SE of fitting

Kd | Molecule
nM | B21

Same assay, conditions: maximal variation of F at λmax on HEL binding; 0.3 µM conjugate, buffer C, 25 °C; value ± SE of fitting

ΔF∞/F0 | Molecule
0.3±0.1 | B12
nm | B21

Same assay, conditions: relative sensitivity of the conjugate at a fixed concentration of 0.3 µM (Equation 8), HEL, buffer C

sr | Molecule
0.06 | B12
0.90 | B23
0.72 | B13
0.24 | B14
0.49 | B15
0.22 | B16
0.07 | B17
1.16 | B24
0.27 | B19
0.17 | B20
3.17 | B25
nm | B21

Reference: patent publication EP2469278A1, “Reagentless fluorescent biosensors from nanofitins, rational design methods to create reagentless fluorescent biosensors and methods of their use” (Institut Pasteur, priority 2010, dated 2012)
